{"source": "paper PMC8385042", "biological_target": "TIR domain of Toll-like receptor 1 (TLR1-TIR), residues 625-786 of human TLR1 (human) (UniProt Q15399)", "test": "dynamic light scattering; 100 uM TLR1-TIR, 10 °C, cytoplasm-like buffer, threefold molar excess of ZnCl2 (1:3 protein to metal)"}
{"substance": "TIR domain of Toll-like receptor 1 (TLR1-TIR), residues 625-786 of human TLR1 (from UniProt Q15399 625-786) (domain or fragment)", "values": [{"measurement": "stoichiometry N", "value": 5}]}
